Target: T1, B19 protein of chorioallantois vaccinia virus Ankara (CVA) (Vaccinia virus, strain Ankara (CVA), UniProt P23998 20-351)
T1 construct: also called orthopoxviral B19 protein
Experiment: statement in Example 3; no assay described for IFN-β

B1: murine IFN-beta (ligand)
chain: INYKQLQLQERTNIRKCQELLEQLNGKINLTYRADFKIPMEMTEKMQKSYTAFAIQEMLQNVFLVFRNNFSSTGWNETIVVRLLDELHQQTVFLKTVLEEKQEERLTWEMSSTALHLKSYYWRVQRYLKLMKYNSYAWMVVRAEIFRNFLIIRRLTRNFQN
notes: also called IFN-β; murine IFN-β
- binding result: no binding

Reference: US20160376596A1 (BAVARIAN NORDIC A S, published 2016)
